According to the supplement of paper PMC9732359:
± gives the uncertainty stated by the source.

Assay: protein stability index of a GFP-peptide fusion (yeast GPS) (PSI 1-4); higher = more stable; sorted into four equal gates, so the index is relative within each strain
Method in brief: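 Tiled yeast protein peptides of 17 residues were each joined downstream of GFP, on plasmids that also express Cherry. The pooled library was maintained in yeast, and mid-log cultures in leucine-free medium were sorted into four equal gates on the GFP/Cherry ratio. Plasmids from every gate were amplified by PCR and sequenced on Illumina, with barcodes linking reads to strains. The protein stability index of a peptide is its gate-number-weighted read frequency summed over the gates.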

Row | Sequence | protein stability index (doa10∆) | protein stability index (pdr5∆) | protein stability index (san1∆) | protein stability index (ubr1∆)
1 | AEVQSLFQDGSASLHTR [RRP4] | 2.57 ± 0.13 | 2.78 ± 0.16 | 2.85 ± 0.1 | 
2 | LKENNAILQKSLKNVTE [YIL149C/MLP2] | 2.67 ± 0.049 | 2.57 ± 0.057 | 2.89 ± 0.038 | 2.75 ± 0.044
3 | SNSMDRSSSASNEFVPN [SWI1] | 2.75 ± 0.055 | 2.71 ± 0.055 | 2.65 ± 0.046 | 2.69 ± 0.045
4 | LTHRLGGDTCSSDGALC [POP1] | 2.96 ± 0.11 | 3.39 ± 0.084 | 3.17 ± 0.12 | 3.19 ± 0.054
5 | SNGLLSIVLLLLSQFGI [YML103C/NUP188] | 1.51 ± 0.12 | 1.53 ± 0.083 | 1.41 ± 0.18 | 2.19 ± 0.079
6 | DYTLQDIICEDSTLILE [RPB2] | 2.83 ± 0.082 | 2.64 ± 0.078 | 2.11 ± 0.11 | 2.15 ± 0.072
7 | VMRNEIRITSLQGDLTF [SIR4] | 2.8 ± 0.073 | 2.35 ± 0.062 | 2.65 ± 0.081 | 2.68 ± 0.063
8 | SSLLYTYDENDDFFKEL [ESC2] | 2.52 ± 0.13 | 2.8 ± 0.17 | 2.62 ± 0.15 | 2.87 ± 0.094
9 | QRQKTYVERFETQLKVV [SMC1] | 1.73 ± 0.065 | 2.51 ± 0.08 | 1.23 ± 0.2 | 1.24 ± 0.061
10 | FKVRTNLNDKFGIYILT [MED1] | 1.76 ± 0.05 | 1.87 ± 0.046 | 1.98 ± 0.098 | 1.92 ± 0.042
11 | YKVDAEGKVTKLRRECS [RPS31] | 2.68 ± 0.12 | 2.92 ± 0.14 | 2.67 ± 0.12 | 3.22 ± 0.078
12 | ICEPKETLSIFTNVPLN [YJL039C/NUP192] | 2.1 ± 0.046 | 2.24 ± 0.042 | 2.54 ± 0.05 | 2.36 ± 0.037
13 | NSMDISMFSGLDSTGFD [MED2] | 2.83 ± 0.059 | 3.06 ± 0.055 | 3.21 ± 0.041 | 2.83 ± 0.049
14 | KIGDLGLARKFHNMLQT [SSN3] | 2.9 ± 0.085 | 3.14 ± 0.1 | 3.23 ± 0.058 | 3.37 ± 0.045
15 | MKWSAIPFQTLYRSIES [YJL039C/NUP192] | 1.53 ± 0.046 | 1.91 ± 0.058 | 1.7 ± 0.11 | 1.91 ± 0.031
16 | ASNEVIAKSRYWYFLQK [RPL20A] | 2.19 ± 0.054 | 2.66 ± 0.066 | 2.58 ± 0.063 | 2.72 ± 0.058
17 | KLTILQEGIEAIATTVI [RET1] | 2.79 ± 0.069 | 2.32 ± 0.06 | 2.51 ± 0.082 | 2.78 ± 0.037
18 | MEYLSGGEKTVAALALL [SMC1] | 2.2 ± 0.15 | 2.41 ± 0.11 | 1.68 ± 0.19 | 2.3 ± 0.13
19 | AGNIKCRNDAVNWLAYT [BRR2] | 3.13 ± 0.05 | 3.49 ± 0.039 | 3.16 ± 0.034 | 3.24 ± 0.035
20 | LGDMAVCFNNLVDENTD [YCS4] | 2.61 ± 0.068 | 2.8 ± 0.077 | 2.72 ± 0.076 | 2.85 ± 0.064
21 | LLQEGGSLSGNSSSMEE [ESC2] | 2.97 ± 0.11 | 2.67 ± 0.16 | 2.38 ± 0.13 | 2.64 ± 0.096
22 | ESLTNSNMFDNSADVDM [YGL100W/SEH1] | 3.34 ± 0.085 | 3.57 ± 0.086 | 3.48 ± 0.056 | 3.36 ± 0.093
23 | QPSQQPQQAQQQPNPLH [GAL11] | 2.91 ± 0.05 | 2.95 ± 0.037 | 2.85 ± 0.035 | 2.97 ± 0.034
24 | KFEPLYPREEEEDYNEF [PRP8] | 3.35 ± 0.15 | 3.31 ± 0.13 | 3.12 ± 0.072 | 3.37 ± 0.096
25 | QDKEGIPPDQQRLIFAG [RPS31] | 2.95 ± 0.068 | 2.8 ± 0.057 | 3.19 ± 0.035 | 3.15 ± 0.033
26 | ISLPKGKGIKLSIAEER [RPS4A] | 2.03 ± 0.15 | 2.18 ± 0.28 | 2.62 ± 0.081 | 2.47 ± 0.077
27 | KYLEQVLDHQRAIPFRR [RPL17A] | 2.52 ± 0.059 | 2.35 ± 0.055 | 1.61 ± 0.083 | 1.78 ± 0.043

Row | Sequence | protein stability index (doa10∆) | protein stability index (pdr5∆) | protein stability index (san1∆) | protein stability index (ubr1∆)
28 | LHANGASFFFMVMFMHM [COB] | 1.75 ± 0.037 | 1.36 ± 0.028 | 1.37 ± 0.065 | 1.38 ± 0.036
29 | TITNSSSSSDIIVPDLI [YML103C/NUP188] | 2.87 ± 0.081 | 3.07 ± 0.052 | 2.83 ± 0.061 | 3.05 ± 0.056
30 | VFYAPNVKNYSTTQEIL [RPC34] | 2.4 ± 0.1 | 1.97 ± 0.071 | 3.02 ± 0.082 | 2.06 ± 0.048
31 | FNNEKETEKFALERNWP [RPN12] | 2.68 ± 0.07 | 2.63 ± 0.055 | 2.76 ± 0.041 | 2.84 ± 0.037
32 | MLCTADTPEGEACGLVK [RET1] | 1.47 ± 0.1 | 1.77 ± 0.14 |  | 
33 | EQTVEYMVSRAIRDGVI [RPN3] | 3.47 ± 0.15 | 3.58 ± 0.1 | 2.64 ± 0.17 | 3.45 ± 0.049
34 | KKEYIELDILNKGWKLQ [SRB4] | 2.29 ± 0.13 | 3.38 ± 0.17 | 2.76 ± 0.089 | 2.94 ± 0.16
35 | PVIDYELKEITSLPDWC [BRR2] | 2.8 ± 0.099 | 2.78 ± 0.086 | 3.1 ± 0.086 | 3.05 ± 0.048
36 | SLQSSSQTQLENANAAN [MED2] | 1.96 ± 0.075 | 2.6 ± 0.056 | 2.64 ± 0.091 | 1.33 ± 0.035
37 | LKSLYSFFNISPDAPKE [SIN4] | 2.32 ± 0.093 | 1.38 ± 0.048 | 1.43 ± 0.079 | 1.84 ± 0.049
38 | STPNFGGNSNKSPPQFF [SIN4] | 2.88 ± 0.039 | 3.1 ± 0.043 | 2.89 ± 0.03 | 2.9 ± 0.032
39 | KFPATNVTTILDEIFSG [ECM29] | 2.54 ± 0.078 | 2.93 ± 0.066 | 2.28 ± 0.06 | 2.7 ± 0.063
40 | PKNLSTPSTSSNGEFIP [CSE2] | 2.83 ± 0.049 | 2.87 ± 0.045 | 2.79 ± 0.039 | 2.93 ± 0.043
41 | KDFIENVNNRFDNFLTE [BRN1] | 3.06 ± 0.086 | 3.04 ± 0.093 | 3.2 ± 0.068 | 2.88 ± 0.066
42 | INVDNDPFFAQSEDLSH [YML103C/NUP188] | 3.15 ± 0.055 | 3.08 ± 0.056 | 3.15 ± 0.044 | 3.05 ± 0.046
43 | LEQIQVQLKDANSQIQA [YIL149C/MLP2] | 2.55 ± 0.12 | 2.41 ± 0.27 | 2.45 ± 0.21 | 2.43 ± 0.15
44 | LDVSSDRRKARKAYFTA [RPL26A] | 1.79 ± 0.081 | 1.26 ± 0.082 | 2.42 ± 0.1 | 2.12 ± 0.07
45 | RIIGLSATLPNYEDVGR [BRR2] | 2.23 ± 0.045 | 2.18 ± 0.039 | 2.33 ± 0.044 | 1.94 ± 0.039
46 | PYFDYIFNDILAHVDQI [YJL039C/NUP192] | 1.9 ± 0.11 | 1.89 ± 0.077 | 2.39 ± 0.099 | 1.94 ± 0.054
47 | GLFGANSNSNSGSLFGS [YGL172W/NUP49] | 1.31 ± 0.13 | 1.7 ± 0.14 | 1.05 ± 0.25 | 1.41 ± 0.21
48 | SKLSLSRTDAVRCKDCG [RPC10] | 1.77 ± 0.076 | 1.9 ± 0.064 | 1.85 ± 0.13 | 1.9 ± 0.076
49 | LERARDVNIVNRRLVYS [YCG1] | 2.44 ± 0.27 |  | 1.72 ± 0.29 | 1.66 ± 0.13
50 | QITPTVPHSHPSDMVIP [SNF12] | 2.69 ± 0.044 | 2.59 ± 0.045 | 2.63 ± 0.046 | 2.59 ± 0.034
51 | ELTSFSSQPLEPLSDTE [DSN1] | 3.34 ± 0.11 | 3.12 ± 0.096 | 3.29 ± 0.065 | 3.21 ± 0.076
52 | VDIQIINQYQLLYNLKN [SWI1] | 1.68 ± 0.031 | 1.54 ± 0.041 | 1.49 ± 0.086 | 1.33 ± 0.033
53 | QIVPYIEKLTDGHLRAP [BRR2] | 3.04 ± 0.052 | 3.1 ± 0.043 | 3.12 ± 0.037 | 3.15 ± 0.051
